The binders below were run against T1, recombinant human CTLA-4-Fc (R&D Systems, #7268-CT) (human, UniProt P16410 36-161) (assay: surface plasmon resonance, antibody captured on CM5 chip, rhCTLA-4-Fc in solution).
T1 construct: Bought protein; also called rhCTLA-4-Fc; CTLA-4 antigen; not shown: Fc part of the bought fusion protein
T1 sequence: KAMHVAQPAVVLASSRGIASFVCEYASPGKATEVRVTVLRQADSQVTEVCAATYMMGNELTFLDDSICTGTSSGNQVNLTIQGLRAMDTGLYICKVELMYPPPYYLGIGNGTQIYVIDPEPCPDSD
From the text: To detect nonspecific interactions of the CTLA-4 antigen, antibody capture was only performed in flow cell 2, whereas in flow cell 1 only the capturing antibody was immobilized. After capture of the anti-CTLA-4 antibodies, the CTLA-4 antigens were run through both flow cells in different amounts. Specifically, recombinant human CTLA-4-Fc (R&D Systems, #7268-CT), recombinant human CTLA-4 (Sino Biological, #11159-H08H), recombinant cynomolgus CTLA-4-Fc (Sino Biological, #90213-C02H), and recombinant cynomolgus CTLA-4 (Sino Biological, #90213-C08H) were run at 100 nM, 25 nM, and 6.25 nM; and recombinant mouse CTLA-4-Fc (R&D, # 434-CT), recombinant rat CTLA-4-Fc (Sino Biological, #81069-RO2H), and recombinant rat CTLA-4 (Sino Biological, #81069-R08H) were run at 400 nM, 100 nM, and 25 nM. A blank curve (running buffer only) was also included in each run. Association was run for 90 seconds and dissociation for 600 seconds with a flow rate of 10 μl/min. After each run a regeneration step was performed with 10 mM Glycine pH 2.0 (GE Healthcare, BR-1003-55) for 60 seconds with 30 μl/min. Binding curves were evaluated using BIAcore® T200 evaluation software version 2.0.1 applying a Langmuir 1:1 model with global fit of Rmax. From these values the affinities (KD) of AGEN1884 and the reference anti-CTLA-4 antibody for various antigens were calculated and shown in FIG. 1A. The recombinant monomeric cynomolgus CTLA-4, mouse CTLA-4-Fc, and monomeric rat CTLA-4 used in this study failed quality control assessment. […] The surface plasmon resonance analysis was later repeated twice using recombinant mouse CTLA-4-Fc (Sino Biological, #81069-R02H) that passed a quality control assessment at 360 nM, 120 nM, 40 nM, and 13.3 nM for AGEN1884w.
The affinity of the 19 anti-CTLA-4 antibodies described above was analyzed by surface plasmon resonance in an assay similar to the one described in Section 6.1.1. The CTLA-4 antigen tested was recombinant human CTLA-4-Fc (R&D Systems, #7268-CT). The anti-CTLA-4 antibodies (6 μg/ml in running buffer) were captured to the chip surface of a CMS sensor chip.

| Binder | binding result |
| --- | --- |
| AGEN1896 (antibody, V domains shown) VH: EVQLLESGGGLVKPGGSLRLSCAASGFTFSSYSMNWVRQAPGKGLEWVSSISSSSSYIYYADSVKGRFTISRDNAKNSLYLQMNSLRAEDTAVYYCARVGLMGPFDIWGQGTMVTVSS VL: EIVLTQSPATLSFSPGERATLSCRASQSVSSYLAWYQQKPGQAPRLLIYGASSRATGIPDRFSGSGSGTDFTFTISRLEPEDFAVYYCQQYGSSPFTFGPGTKVDIK | binds |
| AGEN1885 (antibody, V domains shown) VH: EVQLVESGGGLVKPGGSLRLSCAASGFTFSSYSMNWVRQAPGKGLEWVSSISSSSSYIYYADSVKGRFTISRDNAKNSLYLQMNSLRAEDTAVYYCARVGLMGPFDIWGQGTMVTVSS VL: EIVLTQSPATLSLSPGERATLSCRASQSVSSYLAWYQQKPGQAPSLLIYATSSRATGIPDRFSGSVSGTDFTLTISRLEPEDFAVYYCQQYGTSPWTFGQGTKVEIK | binds |
| AGEN1886 (antibody, V domains shown) VH: EVQLVESGGGLVKPGGSLRLSCAASGFTFSSYSMNWVRQAPGKGLEWVSSISSSSSYIYYADSVKGRFTISRDNAKNSLYLQMNSLRAEDTAVYYCARVGLMGPFDIWGQGTMVTVSS VL: EIVLTQSPATLSFSPGERATLSCRASQSVSSYLAWYQQKPGQAPRLLIYGASSRATGIPDRFSGSGSGTDFTFTISRLEPEDFAVYYCQQYGSSPFTFGPGTKVDIK | binds |
| AGEN1888 (antibody, V domains shown) VH: EVQLLESGGGLVQPGGSLRLSCAASGFTFSSYAMSWVRQAPGKGLVWVSSISSSSSYIYYADSVKGRFTISRDNAKNSLYLQMNSLRAEDTAVYYCARVGLMGPFDIWGQGTMVTVSS VL: EIVLTQSPATLSFSPGERATLSCRASQSVSSYLAWYQQKPGQAPRLLIYGASSRATGIPDRFSGSGSGTDFTFTISRLEPEDFAVYYCQQYGSSPFTFGPGTKVDIK | binds |
| AGEN1889 (antibody, V domains shown) VH: EVQLVESGGGLVKPGGSLRLSCAASGFTFSSYSMNWVRQAPGKGLEWVSSISSSSSYIYYADSVKGRFTISRDNAKNTLYLQMNSLRAEDTAVYYCARVGLMGPFDIWGQGTMVTVSS VL: EIVLTQSPATLSLSPGERATLSCRASQSVGTYLAWYQHKVGQAPRLLIYGASRRATGIPDRFSGSGSGTDFTLTISRLEPEDFAVYYCQQYGSSPWTFGQGTKVEIK | binds |
| AGEN1890 (antibody, V domains shown) VH: EVQLVESGGGLVKPGGSLRLSCAASGFTFSSYSMNWVRQAPGKGLEWVSSISSSSSYIYYADSVKGRFTISRDNAKNTLYLQMNSLRAEDTAVYYCARVGLMGPFDIWGQGTMVTVSS VL: EIVLTQSPATLSFSPGERATLSCRASQSVSSYLAWYQQKPGQAPRLLIYGASSRATGIPDRFSGSGSGTDFTFTISRLEPEDFAVYYCQQYGSSPFTFGPGTKVDIK | binds |
| AGEN1891 (antibody, V domains shown) VH: EVQLVESGGGLVKPGGSLRLSCAASGFTFSSYSMNWVRQAPGKGLEWVSSISSSSSYIYYADSVKGRFTISRDNAKNTLYLQMNSLRAEDTAVYYCARVGLMGPFDIWGQGTMVTVSS VL: EIVLTQSPATLSVSPGERATLSCRASQSVSSYLAWYQQKPGQAPRLLIYAASTRATGIPDRFSGSASGTDFTLTISRLEPEDFAVYYCQQYGSSPWTFGQGTKVEIK | binds |
| AGEN1892 (antibody, V domains shown) VH: EVQLVESGGGLVKPGGSLRLSCAASGFTFSSYSMNWVRQAPGKGLEWVSSISSSSSYIYYADSVKGRFTISRDNAKNTLYLQMNSLRAEDTAVYYCARVGLMGPFDIWGQGTMVTVSS VL: EIVLTQSPATLSLSPGERATLSCRASQSVSSYLAWYQQKPGQAPRLLIYGASNRATGIPARFSGSGSGTDFTLTISSLEPEDFAVYYCQQYGSSPFTFGPGTKVDIK | binds |
| AGEN1893 (antibody, V domains shown) VH: EVQLLESGGGLVKPGGSLRLSCAASGFTFSSYSMNWVRQAPGKGLEWVSSISSSSSYIYYADSVKGRFTISRDNAKNSLYLQMNSLRAEDTAVYYCARVGLMGPFDIWGQGTMVTVSS VL: EIVLTQSPATLSLSPGERATLSCRASQSVGTYLAWYQHKVGQAPRLLIYGASRRATGIPDRFSGSGSGTDFTLTISRLEPEDFAVYYCQQYGSSPWTFGQGTKVEIK | binds |
| AGEN1895 (antibody, V domains shown) VH: EVQLLESGGGLVKPGGSLRLSCAASGFTFSSYSMNWVRQAPGKGLEWVSSISSSSSYIYYADSVKGRFTISRDNAKNSLYLQMNSLRAEDTAVYYCARVGLMGPFDIWGQGTMVTVSS VL: EIVLTQSPATLSLSPGERATLSCRASQSVSSYLAWYQQKPGQAPSLLIYATSSRATGIPDRFSGSVSGTDFTLTISRLEPEDFAVYYCQQYGTSPWTFGQGTKVEIK | binds |
| AGEN1899 (antibody, V domains shown) VH: EVQLLESGGGLVQPGGSLRLSCAASGFTFSSYAMSWVRQAPGKGLVWVSSISSSSSYIYYADSVKGRFTISRDNAKNSLYLQMNSLRAEDTAVYYCARVGLMGPFNIWGQGTMVTVSS VL: EIVLTQSPATLSFSPGERATLSCRASQSVSSYLAWYQQKPGQAPRLLIYGASSRATGIPDRFSGSGSGTDFTFTISRLEPEDFAVYYCQQYGSSPFTFGPGTKVDIK | binds |
| AGEN1900 (antibody, V domains shown) VH: EVQLLESGGGLVQPGGSLRLSCAASGFTFSSYAMSWVRQAPGKGLVWVSSISSSSSYIYYADSVKGRFTISRDNAKNSLYLQMNSLRAEDTAVYYCARVGLMGPFNIWGQGTMVTVSS VL: EIVLTQSPATLSLSPGERATLSCRASQSVSSYLAWYQQKPGQAPRLLIYGASNRATGIPARFSGSGSGTDFTLTISSLEPEDFAVYYCQQYGSSPFTFGPGTKVDIK | binds |
| AGEN1902 (antibody, V domains shown) VH: EVQLVESGGGLVQPGGSLTLSCAASGFTFSSYSMNWVRQAPGKGLEWVSSISSSSSYIYYADSVKGRFTISRDNAKNSLYLQMNSLRAEDTAVYYCARVGLMGPFDIWGQGTMVTVSS VL: EIVLTQSPATLSFSPGERATLSCRASQSVSSYLAWYQQKPGQAPRLLIYGASSRATGIPDRFSGSGSGTDFTFTISRLEPEDFAVYYCQQYGSSPFTFGPGTKVDIK | binds |
| AGEN1887 (antibody, V domains shown) VH: EVQLLESGGGLVQPGGSLRLSCAASGFTFSSYAMSWVRQAPGKGLVWVSSISSSSSYIYYADSVKGRFTISRDNAKNSLYLQMNSLRAEDTAVYYCARVGLMGPFDIWGQGTMVTVSS VL: EIVLTQSPGTLSLSPGERATLSCRASQSVSRYLGWYQQKPGQAPRLLIYGASTRATGIPDRFSGSGSGTDFTLTITRLEPEDFAVYYCQQYGSSPWTFGQGTKVEIK | binds |
| AGEN1897 (antibody, V domains shown) VH: EVQLLESGGGLVQPGGSLRLSCAASGFTFSSYAMSWVRQAPGKGLVWVSSISSSSSYIYYADSVKGRFTISRDNAKNSLYLQMNSLRAEDTAVYYCARVGLMGPFNIWGQGTMVTVSS VL: EIVLTQSPGTLSLSPGERATLSCRASQSVSRYLGWYQQKPGQAPRLLIYGASTRATGIPDRFSGSGSGTDFTLTITRLEPEDFAVYYCQQYGSSPWTFGQGTKVEIK | binds |
| AGEN1898 (antibody, V domains shown) VH: EVQLLESGGGLVQPGGSLRLSCAASGFTFSSYAMSWVRQAPGKGLVWVSSISSSSSYIYYADSVKGRFTISRDNAKNSLYLQMNSLRAEDTAVYYCARVGLMGPFNIWGQGTMVTVSS VL: EIVLTQSPATLSLSPGERATLSCRASQSVSSYLAWYQQKPGQAPSLLIYATSSRATGIPDRFSGSVSGTDFTLTISRLEPEDFAVYYCQQYGTSPWTFGQGTKVEIK | binds |
| AGEN1901 (antibody, V domains shown) VH: EVQLVESGGGLVQPGGSLTLSCAASGFTFSSYSMNWVRQAPGKGLEWVSSISSSSSYIYYADSVKGRFTISRDNAKNSLYLQMNSLRAEDTAVYYCARVGLMGPFDIWGQGTMVTVSS VL: EIVLTQSPATLSLSPGERATLSCRASQSVGTYLAWYQHKVGQAPRLLIYGASRRATGIPDRFSGSGSGTDFTLTISRLEPEDFAVYYCQQYGSSPWTFGQGTKVEIK | binds |
